From article PMC5521740

Target: T1, His-CRP (cAMP receptor protein) (Klebsiella pneumoniae NTUH-K2044) (UniProt A0ACD7U7W2)
T1 sequence: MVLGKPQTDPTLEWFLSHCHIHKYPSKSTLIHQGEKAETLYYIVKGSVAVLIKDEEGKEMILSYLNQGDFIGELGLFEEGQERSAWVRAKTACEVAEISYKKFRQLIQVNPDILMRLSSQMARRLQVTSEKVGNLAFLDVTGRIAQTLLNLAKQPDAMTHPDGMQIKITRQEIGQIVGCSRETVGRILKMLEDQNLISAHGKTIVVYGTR
Test: DNase I footprinting
Details: 5x binding buffer ([…], room temperature, 20 min ([…]) or 30 min ([…]

Sequence: ATACCGGCAGCTGCGAGTAATTTTACGTTTTTCATGGTGTTTGTCCTTTTAACTTTTATGGTGGAAAGCATGTTTGCTTTCGATGGACTTATAATAAGTCTGCTAACTATAACGCGCGTGGCAAAAAGTGCGATTTAGATCACATTTTTATGGCGGTTTGATGGCGTAAACATGATCGTTTATCTATTTTTTAATTTAAAAACAATCAATTAATGATTTGCTTCTGAAAGGGGGTATCACAT (double strand) [KP1_4563 promoter footprinting fragment]
- binding: binds
